Data from PMC11601596.

Assays:
[1] = target: Citrobacter sp. RHBSTW-00271 BubCD (JAB/JAMM family peptidase-E1 fusion), wild type (Citrobacter sp. RHBSTW-00271); experiment: crystal structure
[2] = target: Citrobacter sp. RHBSTW-00271 BubCD D104A peptidase domain mutant (Citrobacter sp. RHBSTW-00271); experiment: crystal structure

stoichiometry N [1]	stoichiometry N [2]	Substance
2		Citrobacter sp. RHBSTW-00271 BubCD (JAB/JAMM family peptidase-E1 fusion), wild type (enzyme)
	2	Citrobacter sp. RHBSTW-00271 BubCD D104A peptidase domain mutant (enzyme)
